The assay concerns the target T1, human Glucose-regulated protein 78 (Grp78) (human, UniProt P11021 19-654).
T1 construct: whole, on cells; also called Grp78/Bip; cell surface localized Grp78
The assay can be described thus: western blot of whole cell extracts with purified scFv. In general terms: A western blot detects proteins with antibodies after separation by electrophoresis.

T1 sequence (P11021 19-654): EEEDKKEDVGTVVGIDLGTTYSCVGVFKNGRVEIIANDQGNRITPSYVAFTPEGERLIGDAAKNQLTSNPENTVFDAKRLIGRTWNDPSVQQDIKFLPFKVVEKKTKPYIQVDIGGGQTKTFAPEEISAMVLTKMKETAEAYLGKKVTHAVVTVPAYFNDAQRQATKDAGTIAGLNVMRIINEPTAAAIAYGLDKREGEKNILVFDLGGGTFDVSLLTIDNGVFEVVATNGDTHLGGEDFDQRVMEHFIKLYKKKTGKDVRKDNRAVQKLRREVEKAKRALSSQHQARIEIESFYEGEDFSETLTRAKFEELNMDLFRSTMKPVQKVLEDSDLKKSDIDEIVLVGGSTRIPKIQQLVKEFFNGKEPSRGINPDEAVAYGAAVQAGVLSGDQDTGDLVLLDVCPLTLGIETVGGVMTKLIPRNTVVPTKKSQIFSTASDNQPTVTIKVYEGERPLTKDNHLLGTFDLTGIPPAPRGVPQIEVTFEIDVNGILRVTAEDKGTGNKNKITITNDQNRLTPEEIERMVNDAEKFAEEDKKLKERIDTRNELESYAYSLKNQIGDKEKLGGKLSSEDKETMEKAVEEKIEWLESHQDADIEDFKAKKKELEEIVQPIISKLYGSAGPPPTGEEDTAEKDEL

B1: Grp78-scFv clone-19 (scFv)
scFv: EVQLVESGGGVVQPGRSLRLSCAASGFTFSSYGMHWVRQAPGKGLEWVAVISYDGSNKYYADSVKGRFTISRDNSKNTLYLQMNSLRAEDTAVYYCARKINSTKEVWGQGTLVTVSSGGGGSGGGGSGGSALQSVLTQPPSASGTPGQRVTISCSGSSSNIGSNYVYWYQQLPGTAPKLLIYRNNQRPSGVPDRFSGSKSGTSASLAISGLRSEDEADYYCAAWDDSLNPLVVFGGGTKLTVLGAAAHHHHHHGAAEQN
notes: Tested as soluble scFv made in E. coli HB2151 and purified on a Ni column, apparent size about 29 kDa; It was detected through its c-myc tag with mAb 9E10; also called anti-Grp78 scFv-19; scFv-19
With B1, the binding result is given as “binds”.

The values above are taken from patent WO2005085862A1 (dated 2005).
